Laboratory results reported in patent publication US20170333564A1 (UNIVERSITY OF ROCHESTER, published 2017).
No end group written: not given here. *: point of attachment. Myristoyl = CCCCCCCCCCCCCC(=O)*

Target: IRK (IR β-chain) immunoprecipitated from HEK cell lysates (UniProt P06213 763-1382, limits assumed)
Assay: cell-based or functional assay

Chain of IRK (IR β-chain) immunoprecipitated from HEK cell lysates (P06213 763-1382 limits assumed): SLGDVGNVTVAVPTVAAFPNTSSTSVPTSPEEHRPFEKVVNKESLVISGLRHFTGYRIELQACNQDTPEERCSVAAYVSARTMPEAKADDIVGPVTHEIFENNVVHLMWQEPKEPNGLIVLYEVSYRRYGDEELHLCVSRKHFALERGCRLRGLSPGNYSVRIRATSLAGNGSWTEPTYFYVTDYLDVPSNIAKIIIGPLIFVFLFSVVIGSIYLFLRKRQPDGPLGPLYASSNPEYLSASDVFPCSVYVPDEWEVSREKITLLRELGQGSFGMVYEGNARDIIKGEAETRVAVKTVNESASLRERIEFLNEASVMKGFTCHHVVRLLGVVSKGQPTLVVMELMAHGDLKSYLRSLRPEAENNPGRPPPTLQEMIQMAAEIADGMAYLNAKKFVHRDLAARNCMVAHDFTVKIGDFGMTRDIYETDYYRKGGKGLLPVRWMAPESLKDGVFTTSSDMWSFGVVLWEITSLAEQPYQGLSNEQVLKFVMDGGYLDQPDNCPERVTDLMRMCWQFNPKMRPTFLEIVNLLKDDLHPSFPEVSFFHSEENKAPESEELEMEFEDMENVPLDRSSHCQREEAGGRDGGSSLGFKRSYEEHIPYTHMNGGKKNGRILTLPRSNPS

## Myristoyl-KYCCSRK (cysteine pairing not given here) [P2, myr-KYCCSRK (hBVR-based peptide)]
  kinase activity of IRK immunoprecipitated from HEK cells treated with 40 µM myristoylated peptide for 15 minutes, IRS peptide substrate: ~3 fold
